From article PMC3988174

What was measured:
[1] = target: atToc132 G-domain bait (Arabidopsis thaliana) (UniProt Q9SLF3); assay: two-hybrid; pairwise split-ubiquitin yeast two-hybrid of isolated NubG-preys with Toc159G, Toc132G or Toc132AG bait in NMY51; growth on SD-LWHA (3-AT) and quantitative β-Gal assay, activity relative to a reference bait set to 100%
[2] = target: atToc132 A- plus G-domains bait (Arabidopsis thaliana) (UniProt Q9SLF3); assay: as above
[3] = target: atToc159 G-domain bait (Arabidopsis thaliana) (UniProt O81283); assay: as above
[4] = target: T1, FNR1(TP)-DHFRHis (Arabidopsis thaliana | not stated); assay: pull-down; solid phase binding assay: His-tagged TP-DHFR or DHFR immobilised on Ni-NTA resin (up to 800 pmol), incubated with 35S-labelled in vitro translated receptor, 25°C, 30 min, 50 mM Hepes-KOH pH 7.5, 5 mM MgCl2, 40 mM KOAc, 0.1% Triton X-100, 40 mM imidazole, 0.1 mM GTP; phosphorimager
T1 sequence (Q9FKW6 whole entry, looked up): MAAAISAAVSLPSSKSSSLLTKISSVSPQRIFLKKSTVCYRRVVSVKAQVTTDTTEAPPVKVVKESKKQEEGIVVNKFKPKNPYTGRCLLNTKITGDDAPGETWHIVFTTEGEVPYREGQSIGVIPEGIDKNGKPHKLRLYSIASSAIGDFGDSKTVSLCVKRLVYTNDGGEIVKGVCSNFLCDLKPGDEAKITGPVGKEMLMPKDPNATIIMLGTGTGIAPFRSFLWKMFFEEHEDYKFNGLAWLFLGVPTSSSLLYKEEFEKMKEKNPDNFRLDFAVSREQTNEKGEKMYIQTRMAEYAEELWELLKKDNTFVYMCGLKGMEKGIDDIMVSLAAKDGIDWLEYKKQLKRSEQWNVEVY

[5] = target: T2, LHCA4(TP)-DHFRHis (Arabidopsis thaliana | not stated); assay: as above
T2 sequence (P27521 whole entry, looked up): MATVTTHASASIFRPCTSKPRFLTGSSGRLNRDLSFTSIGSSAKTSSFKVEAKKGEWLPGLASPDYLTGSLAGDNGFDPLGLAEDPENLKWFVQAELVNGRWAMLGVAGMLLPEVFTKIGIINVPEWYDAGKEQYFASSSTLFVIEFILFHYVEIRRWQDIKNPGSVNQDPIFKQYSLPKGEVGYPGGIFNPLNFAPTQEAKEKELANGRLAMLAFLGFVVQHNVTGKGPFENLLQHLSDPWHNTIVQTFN

Sequence of atToc132 G-domain bait (Arabidopsis thaliana) (Q9SLF3 456-794): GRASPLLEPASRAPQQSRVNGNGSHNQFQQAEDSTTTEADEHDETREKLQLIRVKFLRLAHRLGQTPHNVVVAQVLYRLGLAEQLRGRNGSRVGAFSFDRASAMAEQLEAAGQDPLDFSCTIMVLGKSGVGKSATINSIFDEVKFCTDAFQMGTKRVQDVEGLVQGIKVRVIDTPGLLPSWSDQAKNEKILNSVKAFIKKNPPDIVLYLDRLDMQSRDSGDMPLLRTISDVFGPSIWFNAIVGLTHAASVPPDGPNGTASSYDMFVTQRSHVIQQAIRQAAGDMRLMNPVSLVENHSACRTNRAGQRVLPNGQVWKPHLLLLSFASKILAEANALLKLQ
Sequence of atToc132 A- plus G-domains bait (Arabidopsis thaliana) (Q9SLF3 1-794): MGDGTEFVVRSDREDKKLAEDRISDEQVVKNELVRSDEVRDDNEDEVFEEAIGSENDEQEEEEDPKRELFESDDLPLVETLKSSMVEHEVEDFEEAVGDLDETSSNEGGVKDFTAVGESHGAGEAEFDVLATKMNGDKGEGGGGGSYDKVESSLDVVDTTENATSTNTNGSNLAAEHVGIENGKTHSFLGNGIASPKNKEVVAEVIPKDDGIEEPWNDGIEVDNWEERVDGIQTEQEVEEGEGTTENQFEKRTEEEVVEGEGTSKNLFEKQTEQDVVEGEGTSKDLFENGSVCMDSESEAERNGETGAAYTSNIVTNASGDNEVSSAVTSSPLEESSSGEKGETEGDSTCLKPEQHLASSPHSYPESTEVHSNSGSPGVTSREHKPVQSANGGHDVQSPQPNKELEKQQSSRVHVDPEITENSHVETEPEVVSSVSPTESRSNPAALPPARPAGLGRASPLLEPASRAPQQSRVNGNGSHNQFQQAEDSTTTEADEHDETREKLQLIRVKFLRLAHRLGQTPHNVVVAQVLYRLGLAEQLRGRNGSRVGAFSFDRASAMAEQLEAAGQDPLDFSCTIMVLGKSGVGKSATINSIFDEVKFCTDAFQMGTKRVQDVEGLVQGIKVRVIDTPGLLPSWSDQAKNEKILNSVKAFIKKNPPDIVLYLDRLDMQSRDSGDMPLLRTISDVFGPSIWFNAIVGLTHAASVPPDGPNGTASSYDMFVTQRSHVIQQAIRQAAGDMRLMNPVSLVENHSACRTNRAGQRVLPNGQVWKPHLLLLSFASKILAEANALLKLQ
Sequence of atToc159 G-domain bait (Arabidopsis thaliana) (O81283 728-1092): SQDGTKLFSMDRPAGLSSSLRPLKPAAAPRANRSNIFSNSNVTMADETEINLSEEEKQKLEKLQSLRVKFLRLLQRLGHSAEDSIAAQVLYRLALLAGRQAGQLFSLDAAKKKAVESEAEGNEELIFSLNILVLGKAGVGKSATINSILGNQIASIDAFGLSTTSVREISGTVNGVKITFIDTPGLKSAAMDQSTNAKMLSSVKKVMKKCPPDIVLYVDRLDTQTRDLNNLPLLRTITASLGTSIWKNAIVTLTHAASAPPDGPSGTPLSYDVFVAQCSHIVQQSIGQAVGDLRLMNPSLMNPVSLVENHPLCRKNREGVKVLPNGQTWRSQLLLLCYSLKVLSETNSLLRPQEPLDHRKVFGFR
Sequence of [35S]atToc159AG (O81283 1-1092): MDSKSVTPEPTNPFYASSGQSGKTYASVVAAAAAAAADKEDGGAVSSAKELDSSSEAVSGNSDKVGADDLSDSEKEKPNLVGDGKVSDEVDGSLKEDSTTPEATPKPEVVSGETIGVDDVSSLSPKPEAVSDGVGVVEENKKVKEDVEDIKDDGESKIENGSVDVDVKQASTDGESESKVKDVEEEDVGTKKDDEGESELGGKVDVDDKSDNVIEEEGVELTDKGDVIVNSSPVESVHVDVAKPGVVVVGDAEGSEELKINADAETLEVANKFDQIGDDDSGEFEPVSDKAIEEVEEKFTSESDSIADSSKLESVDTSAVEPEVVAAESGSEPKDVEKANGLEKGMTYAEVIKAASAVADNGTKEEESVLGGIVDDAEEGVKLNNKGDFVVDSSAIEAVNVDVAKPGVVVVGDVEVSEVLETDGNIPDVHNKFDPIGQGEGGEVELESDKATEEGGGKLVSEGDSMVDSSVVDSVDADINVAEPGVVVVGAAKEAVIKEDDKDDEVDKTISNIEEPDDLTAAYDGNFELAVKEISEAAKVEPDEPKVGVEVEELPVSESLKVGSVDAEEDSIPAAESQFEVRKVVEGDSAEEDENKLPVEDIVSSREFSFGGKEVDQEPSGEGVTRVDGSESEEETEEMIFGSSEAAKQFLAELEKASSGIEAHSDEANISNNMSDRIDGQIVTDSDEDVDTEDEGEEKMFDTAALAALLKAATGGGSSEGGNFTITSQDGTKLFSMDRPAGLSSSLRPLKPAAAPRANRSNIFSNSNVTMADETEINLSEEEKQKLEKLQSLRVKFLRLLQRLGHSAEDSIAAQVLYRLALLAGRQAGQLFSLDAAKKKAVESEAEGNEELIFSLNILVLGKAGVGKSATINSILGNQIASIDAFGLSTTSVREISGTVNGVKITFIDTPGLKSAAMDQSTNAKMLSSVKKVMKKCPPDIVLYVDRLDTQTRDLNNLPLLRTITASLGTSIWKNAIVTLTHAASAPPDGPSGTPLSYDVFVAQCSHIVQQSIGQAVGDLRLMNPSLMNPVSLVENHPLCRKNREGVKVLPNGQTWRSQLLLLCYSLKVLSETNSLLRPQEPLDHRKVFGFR
Sequence of [35S]atToc132AG (Q9SLF3 1-794): as the sequence (Q9SLF3 1-794) above
Sequence of Photosystem I light harvesting complex gene 1 (Q01667 whole entry, one chain of several): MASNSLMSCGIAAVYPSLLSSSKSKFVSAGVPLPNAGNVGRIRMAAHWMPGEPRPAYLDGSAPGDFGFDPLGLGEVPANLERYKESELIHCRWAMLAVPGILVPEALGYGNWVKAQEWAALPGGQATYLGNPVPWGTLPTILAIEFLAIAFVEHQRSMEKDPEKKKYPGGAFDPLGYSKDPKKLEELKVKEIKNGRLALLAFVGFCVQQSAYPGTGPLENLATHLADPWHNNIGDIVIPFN
Sequence of THI1 -involved in thiamine synthesis (vitamin B) (Q38814 whole entry): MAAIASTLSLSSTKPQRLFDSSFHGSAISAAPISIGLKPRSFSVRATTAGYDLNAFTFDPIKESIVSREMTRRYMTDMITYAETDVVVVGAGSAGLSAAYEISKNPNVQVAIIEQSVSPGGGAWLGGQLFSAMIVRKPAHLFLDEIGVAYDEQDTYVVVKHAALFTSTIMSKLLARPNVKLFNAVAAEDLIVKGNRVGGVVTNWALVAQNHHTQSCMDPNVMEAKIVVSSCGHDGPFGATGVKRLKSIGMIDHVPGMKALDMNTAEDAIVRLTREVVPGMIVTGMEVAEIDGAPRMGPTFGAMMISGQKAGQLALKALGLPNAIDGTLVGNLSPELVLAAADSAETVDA
Sequence of Photosystem II Subunit P-1 (Q42029 whole entry): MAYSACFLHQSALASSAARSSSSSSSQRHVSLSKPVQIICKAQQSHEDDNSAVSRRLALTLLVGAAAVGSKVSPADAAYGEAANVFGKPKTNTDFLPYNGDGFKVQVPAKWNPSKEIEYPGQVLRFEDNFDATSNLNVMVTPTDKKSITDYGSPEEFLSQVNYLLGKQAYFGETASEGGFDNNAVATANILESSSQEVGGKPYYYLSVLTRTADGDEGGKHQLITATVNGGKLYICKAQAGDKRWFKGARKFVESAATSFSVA
Sequence of Photosystem I subunit D-1 (Q9S7H1 whole entry): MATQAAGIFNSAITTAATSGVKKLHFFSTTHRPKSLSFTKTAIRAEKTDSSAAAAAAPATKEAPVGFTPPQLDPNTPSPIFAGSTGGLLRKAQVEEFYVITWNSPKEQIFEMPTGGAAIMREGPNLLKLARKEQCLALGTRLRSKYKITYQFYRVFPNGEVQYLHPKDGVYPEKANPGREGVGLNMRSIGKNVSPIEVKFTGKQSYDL
Sequence of Photosystem I subunit L (Q9SUI4 whole entry): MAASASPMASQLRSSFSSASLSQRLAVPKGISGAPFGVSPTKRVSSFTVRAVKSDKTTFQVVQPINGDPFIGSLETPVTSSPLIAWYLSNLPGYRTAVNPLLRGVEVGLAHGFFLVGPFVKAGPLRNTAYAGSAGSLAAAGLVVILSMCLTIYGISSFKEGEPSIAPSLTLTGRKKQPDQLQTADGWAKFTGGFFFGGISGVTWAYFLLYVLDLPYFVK
Sequence of ATP carrier protein 1 (P31167 whole entry): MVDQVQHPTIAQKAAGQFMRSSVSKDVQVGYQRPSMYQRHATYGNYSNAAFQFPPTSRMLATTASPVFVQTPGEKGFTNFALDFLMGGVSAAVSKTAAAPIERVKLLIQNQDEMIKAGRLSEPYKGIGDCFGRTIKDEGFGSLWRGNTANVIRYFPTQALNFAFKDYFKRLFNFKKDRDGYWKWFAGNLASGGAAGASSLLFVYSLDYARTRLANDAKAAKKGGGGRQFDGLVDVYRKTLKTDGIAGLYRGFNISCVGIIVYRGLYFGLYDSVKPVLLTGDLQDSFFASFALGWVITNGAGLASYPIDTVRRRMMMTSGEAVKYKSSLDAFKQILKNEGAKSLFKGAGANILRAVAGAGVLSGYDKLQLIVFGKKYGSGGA

| % increase in strength of interaction (β-Gal) with Toc132AG against Toc132G [2] [%] | % decrease in strength of interaction (β-Gal) with Toc159G against Toc132G [3] [%] | Substance | other results |
| --- | --- | --- | --- |
| – | – | ATP carrier protein 1 (from UniProt P31167 1-381) (natural protein) | % increase in strength of interaction (β-Gal) with 132G against 159G [1]: 50.6% |
| – | – | ATPase, F0 complex, subunit B/B’ (from UniProt Q42139 1-219) (natural protein) | % increase in strength of interaction (β-Gal) with 132G against 159G [1]: 16.5% |
| 62.2 | – | Acyl Carrier Protein 2 (from UniProt P25701 1-136) (natural protein) | – |
| 55.8 | – | Chaperonin 60 Beta (from UniProt P21240 1-600) (natural protein) | – |
| 285 | – | Copper Chaperone (from UniProt O82089 1-121) (natural protein) | relative β-Gal activity with 132G bait, % lower than with 159G bait [1]: 27% |
| 55.2 | – | Glucose-6-phosphate transmembrane transporter (from UniProt Q9M5A9 1-388) (natural protein) | – |
| – | -5.52 | Light-Harvesting Chlorophyll B-Binding Protein 3 (from UniProt Q9S7M0 1-265) (natural protein) | – |
| – | – | Light-harvesting chlorophyll-protein complex II subunit B1 (natural protein) | % increase in strength of interaction (β-Gal) with Toc159G against Toc132G [3]: 26.4%; relative strength of interaction (β-Gal) with Toc132AG against Toc132G, % change [2]: -25.9% |
| – | – | Lipid-transfer protein (natural protein) | % increase in strength of interaction (β-Gal) with 132G against 159G [1]: 38.1% |
| 115 | – | Membrane-associated progesterone binding protein 3 (from UniProt Q9M2Z4 1-233) (natural protein) | relative β-Gal activity with 132G bait, % higher than with 159G bait [1]: 77.5% |
| – | – | PGR5-Like A (from UniProt Q8H112 1-324) (natural protein) | % increase in strength of interaction (β-Gal) with Toc159G against Toc132G [3]: 13% |
| – | -28.2 | Photosystem I P Subunit (from UniProt Q8LCA1 1-174) (natural protein) | – |
| – | – | Photosystem I light harvesting complex gene 1 (from UniProt Q01667 1-241) (natural protein) | % increase in strength of interaction (β-Gal) with Toc159G against Toc132G [3]: 11.3% |
| – | -27.1 | Photosystem I reaction centre subunit IV (from UniProt Q9S831 1-143) (natural protein) | – |
| – | -12.2 | Photosystem I subunit D-1 (from UniProt Q9S7H1 1-208) (natural protein) | – |
| – | – | Photosystem I subunit E-2 (from UniProt Q9S714 1-145) (natural protein) | % increase in strength of interaction (β-Gal) with Toc159G against Toc132G [3]: 14.4%; % reduction in strength of interaction (β-Gal) with Toc132AG against Toc132G [2]: 50% |
| – | -26.8 | Photosystem I subunit L (from UniProt Q9SUI4 1-219) (natural protein) | – |
| – | -26.1 | Photosystem II 5 kD protein (natural protein) | – |
| – | -6.7 | Photosystem II Subunit P-1 (from UniProt Q42029 1-263) (natural protein) | – |
| – | -11.9 | Photosystem II Subunit S (from UniProt Q9XF91 1-265) (natural protein) | – |
| 33.6 | – | Plastidial Dihydrolipoamide Acetyltransferase (from UniProt Q9C8P0 1-465) (natural protein) | – |
| – | -29.6 | Plastocyanin 2 (from UniProt P42699 1-167) (natural protein) | – |
| 98 | – | Rhomboid-Like Protein 11 (from UniProt Q84MB5 1-280) (natural protein) | – |
| – | – | THI1 -involved in thiamine synthesis (vitamin B) (from UniProt Q38814 1-349) (natural protein) | % increase in strength of interaction (β-Gal) with 132G against 159G [1]: 52% |
| 60.6 | – | ThiaminC (from UniProt O82392 1-644) (natural protein) | relative β-Gal activity with 132G bait, % higher than with 159G bait [1]: 25.3% |
| 93.8 | – | Thioredoxin M-Type 4 (from UniProt Q9SEU6 1-193) (natural protein) | relative β-Gal activity with 132G bait, % higher than with 159G bait [1]: 25% |
| – | – | [35S]atToc132AG (from UniProt Q9SLF3 1-794) (domain or fragment) | percent bound at 800 pmol FNR1(TP)-DHFR [4]: 8.7%; percent bound at 800 pmol LHCA4(TP)-DHFR [5]: 15% |
| – | – | [35S]atToc159AG (from UniProt O81283 1-1092) (domain or fragment) | percent bound at 800 pmol FNR1(TP)-DHFR [4]: 51.9%; percent bound at 800 pmol LHCA4(TP)-DHFR [5]: 38.2% |
